In this test the target is IL-6 protein (human) (UniProt P05231). The test is described as follows: Luminex based assay, biotin-IL-6 binding to solid phase sIL-6R/gp80.

1 substance from patent US20170291942A1 can be followed below.

UniProt P05231, sequence (P05231 30-212 limits assumed): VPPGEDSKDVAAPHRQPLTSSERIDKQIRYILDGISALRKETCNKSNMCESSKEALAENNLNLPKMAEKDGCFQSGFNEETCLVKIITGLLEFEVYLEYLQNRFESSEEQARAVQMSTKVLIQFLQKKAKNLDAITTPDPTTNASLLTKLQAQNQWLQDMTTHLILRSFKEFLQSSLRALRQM

Regarding CLB.IL-6/16 (antibody), the percent inhibition of bound biotin-IL-6 is 62%.
